Assay results from patent US5633227, “Secretory leukocyte protease inhibitor as an inhibitor of tryptase” (Miles, Inc., dated 1997).

Tests used:
[1] = target: T1, bovine trypsin (bovine, UniProt P00760); experiment: GPK-AMC enzyme inhibition assay with bovine trypsin
Experimental: (§1) Inhibitory activity against tryptase and bovine trypsin was measured using Gly-Pro-Lys-aminomethylcoumarin as a substrate. The reaction was performed in assay buffer that consisted of 0.1M Tris (pH 8.0), 1 µg/ml heparin, 0.02% Triton X-100, with 20 mM CaCl_2 included only in the trypsin assays. The amount of coumarin produced was determined by measuring the fluorescence (ex=370 nm, em=432 nm) on a Perkin-Elmer LS-50B fluorimeter. To measure tryptase activity, 12 µl of a 1 nM solution of tryptase (tetramer) was incubated with either the N- (34 to 650 nM final) or the C-terminal (7–150 nM final) domain of SLPI in 1.0 ml of assay buffer for 5 minutes at 37° C. The reaction was started by the addition of the substrate GPK-AMC (20 or 40 µM final) and the increase in fluorescence was measured over a 2 minute period. In order to measure trypsin activity, 3.3 µl of a 10 µg/ml solution was incubated with either the N- or C- terminal domains of SLPI, and assayed using both 10 and 20 µM GPK-AMC. To determine K_i values, Dixon plots of the form 1/V vs [I] were constructed. These are shown in FIG. 8, and the results are listed in Table V. The K_i values for the inhibition of the tryptase catalyzed cleavage of GPK-AMC by the N- and C-terminal domains were determined to be 290 nM and 4.8 nM, respectively (FIG. 8).

[2] = target: T1, bovine trypsin; experiment: GPK-AMC enzyme inhibition assay, Dixon plot, bovine trypsin
Experimental: as §1

| Binder | binding result [1] | Ki [2] [nM] |
| --- | --- | --- |
| SGKSFKAGVCPPKKSAQCLRYKKPECQSDWQCPGKKRCCPDTCGIKCLD (other) [N-terminal domain of SLPI (amino acids 1-49)] | no binding (tested: 1800 nM) | > 1800 |
| C-terminal domain of SLPI (amino acids 50-107) (other) PVDTPNPTRRKPGKCPVTYGQCLMLNPPNFCEMDGQCKRDLKCCMGMCGKSCVSPVKA | – | 130 |
